Assays:
Gln^3-Aβ(3-11)a = molecular target: T1, Gln^3-Aβ(3-11)a
T1 chain: QFRHDSGYE

[1] = molecular target: T2, H-Gln-Ala-Ala-Ala-Ala-NH2
T2 chain: QAAAA

[2] = molecular target: T3, H-Gln-Ala-Ala-Ser-Ala-Ala-NH2
T3 chain: QAASAA

H-Gln-Ala-NH2 = molecular target: T4, H-Gln-Ala-NH2
T4 chain: QA

H-Gln-Ala-OH = molecular target: T5, H-Gln-Ala-OH
T5 chain: QA

H-Gln-Arg-Gly-Ile-NH2 = molecular target: T6, H-Gln-Arg-Gly-Ile-NH2
T6 chain: QRGI

H-Gln-Arg-Tyr-Phe-NH2 = molecular target: T7, H-Gln-Arg-Tyr-Phe-NH2
T7 chain: QRYF

H-Gln-Asn-Gly-Ile-NH2 = molecular target: T8, H-Gln-Asn-Gly-Ile-NH2
T8 chain: QNGI

H-Gln-Gln-OH = molecular target: T9, H-Gln-Gln-OH
T9 chain: QQ

H-Gln-Gln-Tyr-Phe-NH2 = molecular target: T10, H-Gln-Gln-Tyr-Phe-NH2
T10 chain: QQYF

H-Gln-Glu-Ala-Ala-NH2 = molecular target: T11, H-Gln-Glu-Ala-Ala-NH2
T11 chain: QEAA

H-Gln-Glu-Ala-Phe-NH2 = molecular target: T12, H-Gln-Glu-Ala-Phe-NH2
T12 chain: QEAF

H-Gln-Glu-Asp-Leu-NH2 = molecular target: T13, H-Gln-Glu-Asp-Leu-NH2
T13 chain: QEDL

H-Gln-Glu-OH = molecular target: T14, H-Gln-Glu-OH
T14 chain: QE

H-Gln-Glu-Tyr-Ala-NH2 = molecular target: T15, H-Gln-Glu-Tyr-Ala-NH2
T15 chain: QEYA

H-Gln-Glu-Tyr-NH2 = molecular target: T16, H-Gln-Glu-Tyr-NH2
T16 chain: QEY

H-Gln-Glu-Tyr-Phe-NH2 = molecular target: T17, H-Gln-Glu-Tyr-Phe-NH2
T17 chain: QEYF

H-Gln-Gly-OH = molecular target: T18, H-Gln-Gly-OH
T18 chain: QG

H-Gln-Gly-Pro-OH = molecular target: T19, H-Gln-Gly-Pro-OH
T19 chain: QGP

H-Gln-His-Tyr-Phe-NH2 = molecular target: T20, H-Gln-His-Tyr-Phe-NH2
T20 chain: QHYF

H-Gln-Lys-Arg-Leu-NH2 = molecular target: T21, H-Gln-Lys-Arg-Leu-NH2
T21 chain: QKRL

H-Gln-Phe-Ala-NH2 = molecular target: T22, H-Gln-Phe-Ala-NH2
T22 chain: QFA

H-Gln-Pro-Tyr-Phe-NH2 = molecular target: T23, H-Gln-Pro-Tyr-Phe-NH2
T23 chain: QPYF

H-Gln-Ser-Tyr-Phe-NH2 = molecular target: T24, H-Gln-Ser-Tyr-Phe-NH2
T24 chain: QSYF

H-Gln-Trp-Ala-NH2 = molecular target: T25, H-Gln-Trp-Ala-NH2
T25 chain: QWA

H-Gln-Tyr-Ala-OH = molecular target: T26, H-Gln-Tyr-Ala-OH
T26 chain: QYA

H-Gln-Tyr-OH = molecular target: T27, H-Gln-Tyr-OH
T27 chain: QY

H-Gln-Val-OH = molecular target: T28, H-Gln-Val-OH
T28 chain: QV

[3] = molecular target: T29, H-Gln-cyclo(Nε-Lys-Arg-Pro-Ala-Gly-Phe)
T29 chain: QKRPAGF

[4] = molecular target: T30, H-βhomoGln-Phe-Lys-Arg-Leu-Ala-NH2
T30 chain: QFKRLA

[Gln^1]-GnRH = molecular target: T31, [Gln^1]-GnRH
T31 chain: QHWSYGLRPG

[5] = molecular target: T32, [Gln^5]-substance P(5-11)
T32 chain: QQFFGLM

B1: recombinant human glutaminyl cyclase (QC, EC 2.3.2.5) (protein)
chain: VSPSASAWPEEKNYHQPAILNSSALRQIAEGTSISEMWQNDLQPLLIERYPGSPGSYAARQHIMQRIQRLQADWVLEIDTFLSQTPYGYRSFSNIISTLNPTAKRHLVLACHYDSKYFSHWNNRVFVGATDSAVPCAMMLELARALDKKLLSLKTVSDSKPDLSLQLIFFDGEEAFLHWSPQDSLYGSRHLAAKMASTPHPPGARGTSQLHGMDLLVLLDLIGAPNPTFPNFFPNSARWFERLQAIEHELHELGLLKDHSLEGRYFQNYSYGGVIQDDHIPFLRRGVPVLHLIPSPFPEVWHTMDDNEENLDESTIDNLNKILQVFVLEYLHL
KM (buffer containing 1% DMSO) (Gln^3-Aβ(3-11)a): 155 µM
KM (substrate conversion by QC) [1]: 65 µM
KM (substrate conversion by QC) [2]: 79 µM
KM (substrate conversion by QC) (H-Gln-Ala-NH2): 155 µM
KM (0.05 M Tris-HCl, pH 8.0) (H-Gln-Ala-OH): 0.269 mM
KM (0.05 M Tris-HCl, pH 8.0, 0.5 M KCl) (H-Gln-Ala-OH): 0.357 mM
KM (substrate conversion by QC) (H-Gln-Ala-OH): 232 µM
KM (0.05 M Tris-HCl, pH 8.0) (H-Gln-Arg-Gly-Ile-NH2): 0.166 mM
KM (0.05 M Tris-HCl, pH 8.0, 0.5 M KCl) (H-Gln-Arg-Gly-Ile-NH2): 0.091 mM
KM (substrate conversion by QC) (H-Gln-Arg-Gly-Ile-NH2): 143 µM
KM (substrate conversion by QC) (H-Gln-Arg-Tyr-Phe-NH2): 55 µM
KM (substrate conversion by QC) (H-Gln-Asn-Gly-Ile-NH2): 172 µM
KM (substrate conversion by QC) (H-Gln-Gln-OH): 148 µM
KM (substrate conversion by QC) (H-Gln-Gln-Tyr-Phe-NH2): 41 µM
KM (substrate conversion by QC) (H-Gln-Glu-Ala-Ala-NH2): 77 µM
KM (substrate conversion by QC) (H-Gln-Glu-Ala-Phe-NH2): 39 µM
KM (0.05 M Tris-HCl, pH 8.0) (H-Gln-Glu-Asp-Leu-NH2): 0.06 mM
KM (0.05 M Tris-HCl, pH 8.0, 0.5 M KCl) (H-Gln-Glu-Asp-Leu-NH2): 0.061 mM
KM (substrate conversion by QC) (H-Gln-Glu-Asp-Leu-NH2): 55 µM
KM (0.05 M Tris-HCl, pH 8.0) (H-Gln-Glu-OH): 0.373 mM
KM (0.05 M Tris-HCl, pH 8.0, 0.5 M KCl) (H-Gln-Glu-OH): 0.607 mM
KM (substrate conversion by QC) (H-Gln-Glu-OH): 359 µM
KM (substrate conversion by QC) (H-Gln-Glu-Tyr-Ala-NH2): 69 µM
KM (substrate conversion by QC) (H-Gln-Glu-Tyr-NH2): 79 µM
KM (substrate conversion by QC) (H-Gln-Glu-Tyr-Phe-NH2): 47 µM
KM (substrate conversion by QC) (H-Gln-Gly-OH): 247 µM
KM (substrate conversion by QC) (H-Gln-Gly-Pro-OH): 130 µM
KM (substrate conversion by QC) (H-Gln-His-Tyr-Phe-NH2): 68 µM
KM (0.05 M Tris-HCl, pH 8.0) (H-Gln-Lys-Arg-Leu-NH2): 0.051 mM
KM (0.05 M Tris-HCl, pH 8.0, 0.5 M KCl) (H-Gln-Lys-Arg-Leu-NH2): 0.034 mM
KM (substrate conversion by QC) (H-Gln-Lys-Arg-Leu-NH2): 54 µM
KM (substrate conversion by QC) (H-Gln-Phe-Ala-NH2): 69 µM
KM (substrate conversion by QC) (H-Gln-Pro-Tyr-Phe-NH2): 1890 µM
KM (substrate conversion by QC) (H-Gln-Ser-Tyr-Phe-NH2): 55 µM
KM (0.05 M Tris-HCl, pH 8.0) (H-Gln-Trp-Ala-NH2): 0.054 mM
KM (0.05 M Tris-HCl, pH 8.0, 0.5 M KCl) (H-Gln-Trp-Ala-NH2): 0.056 mM
KM (substrate conversion by QC) (H-Gln-Trp-Ala-NH2): 50 µM
KM (substrate conversion by QC) (H-Gln-Tyr-Ala-OH): 101 µM
KM (substrate conversion by QC) (H-Gln-Tyr-OH): 211 µM
KM (substrate conversion by QC) (H-Gln-Val-OH): 196 µM
KM (substrate conversion by QC) [3]: KM-values of 240±14 µM and 133±5 µM for human and papaya QC, respectively
KM (substrate conversion by QC) [4]: KM=2.5±0.2 mM
KM (substrate conversion by QC) ([Gln^1]-GnRH): 53 µM
substrate conversion, determined qualitatively by MALDI-TOF [5]: *
